Bridges are numbered along the chain shown (N, C = ends). Where no end group is shown, it is not given here.
What was measured:
[1] = test system: PDE7; details: cited from earlier work
[2] = biological target: GUCY2C (Homo sapiens, UniProt P25092); experiment: Th Ser40 phosphorylation in HEK cells co-transfected with Th and GUCY2C (western blot); assay type: cell-based; design: expressed in transfected cells; host or cells: HEK cells (ATCC), calcium-phosphate transfection, co-transfected with mouse Th; details: guanylin 10 μM, uroguanylin 1 μM, IBMX 100 μM, 1 hour
GUCY2C, sequence (P25092 24-1073): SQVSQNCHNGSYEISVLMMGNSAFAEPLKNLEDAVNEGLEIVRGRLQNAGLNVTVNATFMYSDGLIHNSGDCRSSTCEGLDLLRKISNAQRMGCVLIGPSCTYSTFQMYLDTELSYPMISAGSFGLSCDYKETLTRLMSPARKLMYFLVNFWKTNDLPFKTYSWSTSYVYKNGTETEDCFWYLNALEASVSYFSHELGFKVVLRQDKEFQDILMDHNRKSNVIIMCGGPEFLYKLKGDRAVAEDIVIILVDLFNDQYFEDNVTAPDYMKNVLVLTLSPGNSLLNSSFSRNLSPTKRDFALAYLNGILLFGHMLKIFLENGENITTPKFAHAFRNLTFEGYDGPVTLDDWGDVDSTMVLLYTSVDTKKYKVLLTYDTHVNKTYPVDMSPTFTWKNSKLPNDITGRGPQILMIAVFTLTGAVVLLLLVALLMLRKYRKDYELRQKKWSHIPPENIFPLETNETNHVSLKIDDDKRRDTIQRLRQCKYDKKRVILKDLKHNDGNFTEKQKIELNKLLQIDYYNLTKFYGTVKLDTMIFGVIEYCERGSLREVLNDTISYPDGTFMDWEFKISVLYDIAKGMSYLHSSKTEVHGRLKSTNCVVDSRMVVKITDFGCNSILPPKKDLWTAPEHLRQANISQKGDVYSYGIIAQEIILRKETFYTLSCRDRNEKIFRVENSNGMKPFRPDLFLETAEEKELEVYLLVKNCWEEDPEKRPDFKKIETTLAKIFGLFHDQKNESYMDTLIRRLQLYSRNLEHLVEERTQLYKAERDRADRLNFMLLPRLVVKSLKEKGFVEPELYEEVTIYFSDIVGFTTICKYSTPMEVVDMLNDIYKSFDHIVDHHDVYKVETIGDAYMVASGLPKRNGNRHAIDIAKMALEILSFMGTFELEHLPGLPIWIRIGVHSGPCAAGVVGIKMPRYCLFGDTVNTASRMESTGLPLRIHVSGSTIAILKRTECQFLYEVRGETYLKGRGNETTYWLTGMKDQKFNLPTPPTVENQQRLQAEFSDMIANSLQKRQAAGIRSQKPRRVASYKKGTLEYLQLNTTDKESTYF
Description: FIG. 4. GUCY2C activation increases Ser40 phosphorylation. Immunocytochemistry images (A) and western blotting analysis (B) of HEK cultures transfected with Th or Th+GUCY2C. (C) Co-transfected HEK cells were treated with guanylin (G) or uroguanylin (UroG) and changes in Ser40 phosphorylation were studied. The graph represents the statistical analysis (n=3 for Control, n=6 for Guanylin, n=9 for Uroguanylin; Mean±SEM). Unpaired Student's t-test (p-value: **<0.01).
FIG. 5. […] (A) HEK cultures were treated with guanylin, in the presence or absence of IBMX. […] Unpaired Student's t-test (p-values: ****<0.0001, **<0.01, *<0.05). (B) HEK cells were co-transfected with Th and either the wt GUCY2C or a gain-of-function mutant (R792S). Ser40 phosphorylation was studied following guanylin treatment (G). […] Unpaired Student's t-test (p-values: ***<0.001, **<0.01).
HEK cells were maintained in 100-mm Petri dishes and grown in DMEM medium supplemented with L-glutamine, penicillin-streptomycin (Pen&Strep) and 10% heat-inactivated fetal bovine serum (HIFBS). Growing conditions were 37° C. and 5% CO2. For every-other-day passages, HEK cultures were split at a 1:3 dilution. From Friday to Monday, the split proportion was doubled for all cell lines. For passaging, cultures were rinsed with PBS and incubated with 1 mL of trypsin during 5 minutes. Cells were resuspended in growth medium and finally split to the proper dilution. The experiments were performed in 12-well plates. For immunocytochemistry analysis, sterile 18-mm coverslips were added prior to the plating. 500 !μL of cell resuspension was seeded in each well. If experiments were to be performed 48 hours after the plate preparation, 1:5 was the seeding ratio for HEK cells. When the experiments took place 96 hours post-plating, 1:7 was the working dilution for HEK cells. Unless otherwise stated, HEK cultures were processed 96 hours post-plating.
HEK cells were transfected using the calcium-phosphate method. 12-well plates were refreshed with 500 μL of growth medium before transfection. […]

[3] = biological target: GUCY2C R792S gain-of-function mutant (human) (UniProt P25092)
[4] = biological target: mouse GUCY2C (endogenous, in mouse striatal slices) (mouse, UniProt Q3UWA6); experiment: cell-based or functional assay

| Molecule | P-Ser40 levels / Ser40 phosphorylation (in words) [2] | P-S40 TH/TTH, fold change (average), mouse striatal slices, 10 µM, 1 h (WES) [4] | further results |
| --- | --- | --- | --- |
| OCCN(CCO)c1nc(N2CCCCC2)c2nc(N(CCO)CCO)nc(N3CCCCC3)c2n1 [Dipyridamole] | – | – | IC50 [1]: 600 nM |
| CC(C)Cn1c(=O)n(C)c(=O)c2[nH]cnc21 [IBMX, 3-isobutyl-1-methylxanthine] | potentiated the increase in Ser40 phosphorylation | – | – |
| guanylin (Example 1) (ligand) | – | – | Ser40 phosphorylation of Th upon guanylin treatment (western blot) (fold higher than with the wt receptor) [3]: 1.5 |
| uroguanylin: natural agonistic ligand of GUCY2C, 16 amino acid peptide (NDDCELCVNVACTGCL; disulfide 4-12, 7-15; UniProt Q16661 97-112, looked up) | increase P-Ser40 levels | – | – |
| H-NDDCELCVNVACTGC-OH (disulfide 4-12, 7-15; SMILES CC(C)C[C@@H]1NC(=O)[C@H](CCC(=O)O)NC(=O)[C@@H](NC(=O)[C@H](CC(=O)O)NC(=O)[C@H](CC(=O)O)NC(=O)[C@@H](N)CC(N)=O)CSSC[C@@H]2NC(=O)[C@H](C)NC(=O)[C@H](C(C)C)NC(=O)[C@H](CC(N)=O)NC(=O)[C@H](C(C)C)NC(=O)[C@H](CSSC[C@@H](C(=O)O)NC(=O)CNC(=O)[C@H]([C@@H](C)O)NC2=O)NC1=O) [peptide 3] | – | 1.2 fold change (average) | – |
| H-NDDCELCVNVACTGCL-OH (disulfide 4-12, 7-15; SMILES CC(C)C[C@H](NC(=O)[C@@H]1CSSC[C@@H]2NC(=O)[C@H](CC(C)C)NC(=O)[C@H](CCC(=O)O)NC(=O)[C@@H](NC(=O)[C@H](CC(=O)O)NC(=O)[C@H](CC(=O)O)NC(=O)[C@@H](N)CC(N)=O)CSSC[C@H](NC(=O)[C@H](C)NC(=O)[C@H](C(C)C)NC(=O)[C@H](CC(N)=O)NC(=O)[C@H](C(C)C)NC2=O)C(=O)N[C@@H]([C@@H](C)O)C(=O)NCC(=O)N1)C(=O)O) [peptide 1] | – | 1.11 fold change (average) | – |

From patent US20210330736A1 (UNIVERSITEIT VAN AMSTERDAM, priority 2018, published 2021)
